Laboratory results from patent US20200407442A1 (WUXI BIOLOGICS IRELAND, published 2020).

How the values were obtained:
[1] = molecular target: T1, full-length human LAG-3 on cells (human, UniProt P18627 23-525); experiment: FACS competition on Flp-In-293 cells expressing human LAG-3: biotinylated BMK1 at 1 ug/mL, serially diluted antibody, Streptavidin-PE
T1 construct: Expressed on Flp-In-293, CHO or 293F transfectants; also called hPro1.FL; cell surface human LAG-3
T1 sequence: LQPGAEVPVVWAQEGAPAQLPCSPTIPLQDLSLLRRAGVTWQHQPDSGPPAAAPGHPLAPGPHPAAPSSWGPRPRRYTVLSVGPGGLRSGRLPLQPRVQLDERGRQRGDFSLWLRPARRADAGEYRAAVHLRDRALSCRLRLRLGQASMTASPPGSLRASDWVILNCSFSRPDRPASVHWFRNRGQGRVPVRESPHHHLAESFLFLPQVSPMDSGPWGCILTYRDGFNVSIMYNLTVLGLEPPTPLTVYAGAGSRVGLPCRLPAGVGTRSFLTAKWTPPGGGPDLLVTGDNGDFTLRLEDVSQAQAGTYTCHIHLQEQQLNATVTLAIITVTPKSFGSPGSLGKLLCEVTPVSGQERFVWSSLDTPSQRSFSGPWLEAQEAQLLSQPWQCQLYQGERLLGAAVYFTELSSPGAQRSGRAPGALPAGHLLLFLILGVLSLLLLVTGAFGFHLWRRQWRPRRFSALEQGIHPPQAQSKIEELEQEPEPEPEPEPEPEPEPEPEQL
Protocol: The binding epitope of LAG-3 antibodies was binned against benchmark antibodies BMK1, BMK7 and BMK5 by FACS assay. Flp-In-293 cells expressing human LAG-3 at the cell surface were incubated with biotinylated benchmark antibodies at concentration of 1 μg/mL for 1 hour, followed by the adding of serially diluted LAG-3 antibodies. Streptavidin-PE antibody (Jackson Immunoresearch Lab) was used to detect the binding of benchmark antibodies to cells. The MFI was evaluated by flow cytometry and analyzed by FlowJo.

[2] = molecular target: T2, Variant 3: xPro1.FL-x3 (human; mouse); experiment: FACS, 1 ug/mL antibody, transfected 293F cells
T2 construct: Chimeric full-length LAG-3 on transfected 293F cells
T2 chain: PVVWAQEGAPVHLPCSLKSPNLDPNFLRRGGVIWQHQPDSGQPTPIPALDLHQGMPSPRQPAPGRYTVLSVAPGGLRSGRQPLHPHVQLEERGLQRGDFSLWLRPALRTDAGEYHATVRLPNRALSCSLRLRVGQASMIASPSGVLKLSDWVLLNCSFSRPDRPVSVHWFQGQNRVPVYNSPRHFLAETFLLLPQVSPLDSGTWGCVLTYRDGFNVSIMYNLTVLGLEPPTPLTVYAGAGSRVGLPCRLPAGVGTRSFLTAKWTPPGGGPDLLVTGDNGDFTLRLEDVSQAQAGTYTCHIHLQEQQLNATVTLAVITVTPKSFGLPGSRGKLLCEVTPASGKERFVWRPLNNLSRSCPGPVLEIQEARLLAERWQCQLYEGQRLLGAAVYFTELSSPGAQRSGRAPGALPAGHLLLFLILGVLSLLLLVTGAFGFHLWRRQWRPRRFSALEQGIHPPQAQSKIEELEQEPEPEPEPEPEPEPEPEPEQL
Protocol: (§1) The 10 variants were cloned into pcDNA3 vector and used for 293F cell transfection. Briefly, 293F cells were diluted to a density of 1×10⁶ cells/mL with FreeStyle 293F medium and aliquots of 3 mL/well were added to 24-well plate. Transfections were performed using 293fectin reagent (Life Technologies). For each transfection, 3 μg of DNA were diluted in 150 μOpti-MEM I-reduced serum medium (Life Technologies), and then combined with 6μL 293fectin reagent pre-diluted in 150 μL Opti-MEM I reduced serum medium. The DNA/[…] mixture was allowed to stand at 25° C. for 20 min before being added to the culture. The transfected cells were analyzed by flow cytometry at 48 h post-transfection.
(§2) Binding of antibodies to chimeric LAG-3 variants or full length human/mouse LAG-3 was analyzed by flow cytometry. Briefly, 1 μg/mL antibodies were incubated with chimeric LAG-3-expressing transfected 293F cells for 1 hour at 4° C., and then incubated with 3 μg/mL goat anti-human IgG Fc R-PE (Jackson) for 40 min at 4° C. Cells were analyzed with flow cytometer.

[3] = molecular target: T3, Variant 8: xPro1.FL-x8 (human; mouse); experiment: FACS, 1 ug/mL antibody, transfected 293F cells
T3 construct: Chimeric full-length LAG-3 on transfected 293F cells
T3 chain: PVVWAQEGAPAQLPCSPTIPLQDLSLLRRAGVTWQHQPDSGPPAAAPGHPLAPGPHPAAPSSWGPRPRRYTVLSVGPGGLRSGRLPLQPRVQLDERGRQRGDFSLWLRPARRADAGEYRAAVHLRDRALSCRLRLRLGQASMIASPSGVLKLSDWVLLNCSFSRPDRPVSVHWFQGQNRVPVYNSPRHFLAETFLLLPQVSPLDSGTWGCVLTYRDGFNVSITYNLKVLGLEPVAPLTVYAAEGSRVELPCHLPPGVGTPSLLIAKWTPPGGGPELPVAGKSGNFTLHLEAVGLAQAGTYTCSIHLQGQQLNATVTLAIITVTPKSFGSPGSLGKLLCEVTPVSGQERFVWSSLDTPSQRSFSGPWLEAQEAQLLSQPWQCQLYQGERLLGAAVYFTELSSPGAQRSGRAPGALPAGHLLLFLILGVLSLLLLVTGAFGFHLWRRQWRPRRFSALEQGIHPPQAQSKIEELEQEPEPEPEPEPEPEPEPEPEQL
Protocol: as §1, §2

[4] = molecular target: T4, Variant 4: xPro1.FL-x4 (human; mouse); experiment: FACS, 1 ug/mL antibody, transfected 293F cells
T4 construct: Chimeric full-length LAG-3 on transfected 293F cells
T4 chain: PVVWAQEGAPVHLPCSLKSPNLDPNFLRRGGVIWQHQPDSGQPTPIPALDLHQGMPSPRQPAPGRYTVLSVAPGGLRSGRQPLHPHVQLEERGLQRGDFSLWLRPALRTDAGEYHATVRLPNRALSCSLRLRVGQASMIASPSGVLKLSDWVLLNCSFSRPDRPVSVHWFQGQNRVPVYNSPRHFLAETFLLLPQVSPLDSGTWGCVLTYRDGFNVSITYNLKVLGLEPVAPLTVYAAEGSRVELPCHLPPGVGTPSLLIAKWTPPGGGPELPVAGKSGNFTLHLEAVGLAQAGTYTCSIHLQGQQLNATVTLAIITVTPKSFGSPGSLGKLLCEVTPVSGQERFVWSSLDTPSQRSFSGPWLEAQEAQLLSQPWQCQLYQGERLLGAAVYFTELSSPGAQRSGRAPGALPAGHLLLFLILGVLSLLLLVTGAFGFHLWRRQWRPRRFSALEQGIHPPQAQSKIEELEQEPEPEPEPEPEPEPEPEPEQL
Protocol: as §1, §2

B1: 1.53.3-uAb-IgG4k (antibody, V domains shown)
VH: QVQLQQWGAGLLKPSETLSLTCGVYGGSFSGYYWSWIRQPPGMGLEWIGEINHRGNTNYNPSLKSRVTISEDTSKNQFSLRLSSVTAADTAVYFCTRGEDYSDYDYYGDFWGQGTLVTVSS
VL: EIVLTQSPATLSLSQGERATLSCRASQSISSYLAWYQQKPGQAPRLLIYAASNRATGIPARFSGSGSGTDFTLTISSLEPEDFAIYYCQQRSNWPLTFGGGTKVEIK
notes: Fully human antibody from OMT rats; IgG4 kappa by its name
IC50 (read off the curve) [1]: ~5 nM
MFI [2]: 41.7
PE+ % [2]: 2.03%
MFI [3]: 7430
PE+ % [3]: 97.6%
MFI [4]: 41
PE+ % [4]: 1.42%
